This data set can be described thus: protease stability score; higher = more stable; yeast display proteolysis, trypsin and chymotrypsin.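 Note: log10 excess protease needed over predicted unfolded state with 0 meaning unfolded.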
Sequence “DEEENNKIARRAAKAFSTGDPDEFHKLVDPNARVRIGEKEVHGREDVHRMVQELRERADHIQVTSFTFQGNKITLDLSLDVNGHTVKLNVEITIHNGHVVDINIDPEQVKSLHG” displayed a protease stability score of 0.647.

With “DEEENQELAEKFVRAIQEGDPDQITDLLDENAKATVGDRTYHGRSQIADYIHEMLKKADHFEVQSVDVQGNHIVIHVQMDINGKQVHMIIKMELSNGKVKHLEIEHK”, the protease stability score amounted to 1.75.

Sequence “DEEENTKVMERFLDAVKRGNEDDLHELADKDVRLTVGDKEYHGREEIMEYLHEWRKKVDHIDFDSYTVRGNTVEVHFQVHDNGQNEDVVVQVEVHNGRVKTVRYRHK” yielded a protease stability score of 1.72.

Regarding “DEEEQDKVRKNIHHNNFDHLVQMADPNAHVKIGDKRIHGREELRKYQEKLKKQADHFSIDDMKVEGNKFKVKNNFKVNGQSFEHDYEATVQNGRLKSATVDARDEEDKKKLNEQMS”, the protease stability score is 0.451.

In the case of “DEEEQEKQAHDFARVFNTGDEEKFKRLMPPDARFRYGDKEYHGMDDLLRMLLEMHKRADHLTLVDVDAHGNHLTIRIKVTVNGSDVTVDITITVDNGRLKSVVVDPRQWQKLRN”, the protease stability score was determined as 0.066.

For “DEEEQERAMEKLDHAIEKGDPDDAVELLDENADAVIGDKRYHGREAATTFMHELRKQIDHIHIRDMQIDNGRAHIEVDARHNGQERKINVVFVFHNGRATSMENRSE”, the protease stability score amounted to 1.02.

As for “DEEEQHKRAREYMQMFEDNDEKNLMHMADENARLVVGDKTYRGKEELSKQVREQKKRVDHNQVHSVRLHNGRVVIDVTLHHNGHREKRIIRVQLRNGRIKSIVYESG”, the protease stability score turned out to be 0.037.

Sequence “DEEEQHKTATKILSDFHTGNPDDMRENADEDVTAQVGDKTYTGREEFHKAVKTIVDRVDHLEIKSFDFHNGQLEANFVININGKNEKKKLVMRVENGRVKHMKIDDG” showed a protease stability score of -0.221.

“DEEEQHKVAKKLNEAFQQGDPDRLKQLVDKDARAEVGDTTYHGSQDIREAMQHIKDRVDKIEVKSFSVRNGKVTLSINMEVNGRKVILTVEARVDNGHVEYMRIKYTNEEDREVMDQ”: the protease stability score came to 0.95.

The sequence “DEEEQKKRAKKQADAMRQGDTDELVKMLRDDVRVKVGDKEVHGREDLKKWAREIKKEVDHIQIRQVQVHNGRIDFHIVVNHNGKNKEVVLVVRVRNGQATDFKLTRK” came in with a protease stability score of 0.051.

As for “DEEEQKNRAKNAADAFQTGDPDQMVEMVDKDVRVQVGDKRYHGREVARTVLDEMQQHIDHIHVKNYNVSGNTVEIRIKANINGRDVEINIHIEMHNGRVKEVKFNPKVADAAKR”, the protease stability score worked out at 0.25.

On to “DEEEQKVFEKVQDAIRDGDEDTVKKLMDENAKVTIGDKDLHGSDNIARHVHKLHKDMRISIDIKHIDVTGDKIRVHARVEVDKNGKPKHYDVDFTARAKNGKVKTLNYREDS”, for which the protease stability score turned out to be 0.694.

Sequence “DEEEQMHQANQNLRDAFRTNDPDTWRTLVDENARVRIGDKHVSGREEVKELMEDIAREADHLELRVQSMTVRNGELHVHFTLRADVNGQKREIQVVVVLVVRNGRARISRVEQT” showed a protease stability score of 1.15.

Turning to “DEEEQNKIAETAAKAVASGDEKRLVDLADKHVKVHYGDKDLRGKEAADTLAHDLKRQVDNIKVDTVHAHNGRANADVEVRVNGKKVRYQVQVVVTNGTIDRVQLDPDMVRDHES”, the protease stability score is 0.101.

Sequence “DEEEQQDHAHTLKDALTYGNEQEFRHMADENARINYGEFDYHGREQFQDVIRRIMEQADHVRVDHVQVHGEHVDIRLKVKFNGQTQRWVIIVRFHNGRIKHLSADTQ” registered a protease stability score of 0.499.

With “DEEEQQKNAETADRNVKTGNWEEIKKMVDKDARVKIGDTTLHGREDVSREFKRWREDADHVEMKRVSASNGRAVVEVEYTVNGRKKKFTMIMEMHNGRIKHFRNERS”, the protease stability score is 0.251.

In the case of “DEEEQQKVADKIVEVLKSGNPDEMMKLADENVRAQVGDKTYHGREELKKWMKEVRDRVDRIRVETWEVHNGTVNIIVRMDVDGQTLTLTITANIHNGRIKQIVIEYRDDDELRKAQK”, the protease stability score stood at 0.729.

“DEEEQRKAAHQYRKGDPDEAHHMFDENATVEIGNFHVQGREQVREAFEHMKRRADHREVDDMKIQGDKVQVDFQIVVNGQRVKATLDAKVKNGRAQSVRVEFRDEEDRTRAERWFK” showed a protease stability score of 0.042.

In the case of “DEEEQRKTAEDIAQVLRTNNPDTMNKLADKNAKASVGDKTYHGRKELSKWIEEQRRRVDHVDIKRFSVDGNEIIIIVILNHNGQNTRVVMVARVKNGRIQSLWRKSK”, the protease stability score is -0.176.

The record behind these values is the NTF2 design screens of Basanta et al. (2020).
